From US20050182242A1, “Global analysis of protein activities using proteome chips” (priority 2001, published 2005)

B1: KCC4: yeast GST-HisX6 fusion protein on proteome chip (protein, UniProt P25389 1-1037, looked up)
Probable …: MTVANTETHSAAKPSSTIGPWKLGETLGFGSTGKVQLAQHERTGHRTAVKVISKSIFNNNGNHSNDDSVLPYNIEREIVIMKLLSHPNVLSLYDVWETNNNLYLILEYAEKGELFNLLVDHGPLPEREAINCFRQIIIGISYCHALGIVHRDLKPENLLLDSFYNIKIADFGMAALQTDADLLETSCGSPHYAAPEIVSGLPYEGFASDVWSCGVILFALLTGRLPFDEENGNVRDLLLKVQKGQFEMPNDTEISRDAQDLIGKILVVDPRQRIKIRDILSHPLLKKYQTIKDSKSIKDLPRENTYLYPLADSNNHTSASIDDSILQNLVVLWHGRHADDIVSKLKENGTNKEKILYALLYRFKLDSVRGSNKKNRNKIKKTKKNKRSSTLSSSSSLLLNNRSIQSTPRRRTSKRHSREFSSSRKRSSFLLSSNPTDSSPIPLRSSKRITHINVASANTQATPSGVPNPHKRNSKKRSSKRLSYMPNTKRSSLTSKSLSNFTNLIDDDDWEYIEKDAKRTSSNFATLIDEIFEPEKFELAKREKAELQRKVQEAKRQSVNAQKINEDEFGSEVSDGMKELKKINDKVSSPLINYEFSQQELLQDIDTLLTNRYQLSSYTRPISRLDPGLTPVTETLPNNLKEKTALLQDTEKKIIETIRRSKFLGSLLNVRGGLSPGKSELAPIEESPIVSTTPLIYNDRMEPRRISDVEVPHFTRKSKHFTTANNRRSVLSLYAKDSIKDLNEFLIKEDPDLPPQGSTDNESRSEDPEIAESITDSRNIQYDEDDSKDGDNVNNDNILSDFPQGVGISQEYDMKDKNPNQSPISKSAEPTLVVKLPSLSSFQGKNASGLGLYQREPSKVTLPSLTSNNSSVGENIEDGAEKGTESEKIAASLSDDDLKEDNDKKDNDTVNAPTTVKKPPNSVLLKKFSKGKILELEIHAKIPEKRLYEGLHKLLEGWKQYGLKNLVFNITNMIITGKLVNDSILFLRSTLFEIMVLPNGDGRSLIKFNKKTGSTKTLTKLATEIQIILQKEGVLDK
modifications: GST-HisX6 tag
notes: yeast GST-HisX6 fusion protein on proteome chip
B2: ROT1: yeast GST-HisX6 fusion protein on proteome chip (protein, UniProt Q03691 25-256, looked up)
Protein ROT1: EDESNSIYGTWSSKSNQVFTGPGFYDPVDELLIEPSLPGLSYSFTEDGWYEEATYQVSGNPRNPTCPMASLIYQHGTYNISENGTLVLNPIEVDGRQLFSDPCNDDGVSTYSRYNQTETFKEYAVGIDPYHGIYTLQLYQYDGTPMQPLYLAYRPPMMLPTETLNPTSSATSTDDPSSNKKRSLRSLVRRSLENRHKTNAIKRQNTSFLTSNAIWYISAGMLGVGSLLFLAF
modifications: GST-His6 tag
notes: as for B1
B3: ARP10: yeast GST-HisX6 fusion protein on proteome chip (protein, UniProt Q04549 1-284, looked up)
Actin-like protein ARP10: MSNTIVIVYLGANRIEIGRSADACPQEIIAWKTGSINEKNREELKKIFEHYFQICNILGNREVQVLILEDIFISVVEKRIICSILFKEFDCAHVSFVPRAIVHCLSCNTRNAIVIDIGTNYTTCVPIFDLRPLQQFIKYSKRGKRQVESRIPLPGSLYMPIFFDEEYNSKNCEVDETPVINLVKNIVESLPIDLRRPLRENIIIVNIEEAYETVIRNLFKLKMDTSKIQFPKNYWQAGSACAKILLHYKGSNIVGIERDEFYNNPHIAPDWFDYYFRTGVKRLQ
modifications: GST-HisX6 tag
notes: as for B1

What was measured:
Conditions in all cases: liposome binding signal on yeast proteome chip, Cy3-streptavidin detection
[1] = tested on: PI(3,4,5)P3 liposomes; assay: Yeast proteome chip probed with PI(3,4,5)P3 liposomes
[2] = tested on: phosphatidylcholine (PC) liposomes; assay: Yeast proteome chip probed with PC liposomes
Method in brief: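 Yeast proteome chips incubated 1 h at RT with sonicated liposomes of PC containing 1% (w/w) biotin-DHPE, plus 5% (w/w) of the indicated phosphoinositide where applicable. After PBS washes, bound liposomes detected with Cy3- or Cy5-streptavidin (>30 min, RT, dark) and fluorescence scanned.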

[3] = tested on: PI(4)P liposomes; assay: Yeast proteome chip probed with PI(4)P liposomes
[4] = tested on: PI(3,4)P2 liposomes; assay: Yeast proteome chip probed with PI(3,4)P2 liposomes
[5] = tested on: PI(4,5)P2 liposomes; assay: Yeast proteome chip probed with PI(4,5)P2 liposomes
[6] = tested on: PI(3)P liposomes; assay: Yeast proteome chip probed with PI(3)P liposomes

Row | Molecule | PI(3, 4, 5)P3 [1] | PC [2] | PI(4)P [3] | PI(3, 4)P2 [4] | PI(4, 5)P2 [5] | PI(3)P [6]
1 | B1 | 65.47 | 123.26 | 84.92 | 234.84 | 67.06 | 33.50
2 | B2 | 99.11 | 121.50 | 52.04 | 137.98 | 63.58 | 33.25
3 | B3 | 30.15 | 119.74 | 98.64 | 29.20 | 32.01 | 51.00
